Molecular target: T1, recombinant 6His-Sp17 protein (UniProt Q15506 1-151)
T1 sequence: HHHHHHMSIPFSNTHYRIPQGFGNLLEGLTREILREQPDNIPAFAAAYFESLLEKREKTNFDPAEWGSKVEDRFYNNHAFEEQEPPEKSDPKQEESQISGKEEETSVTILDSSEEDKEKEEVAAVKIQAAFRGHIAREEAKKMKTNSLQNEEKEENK
Assay: SPR (Biacore T200), 6His-Sp17 at 6.25-300 nM
Text: The lines correspond, from highest to lowest, to fitted cycles for 300 nanomolar, 100 nanomolar, 50 nanomolar, 25 nanomolar, 12.5 nanomolar, and 6.25 nanomolar concentrations of 6His-Sp17.
The nucleotide sequences encoding the VH and VL regions of Example 1 were cloned into a mouse IgG2a heavy chain gene and a mouse kappa light chain gene, respectively, and expressed in CHO—S cells to produce a mouse-human chimeric antibody, which was named chAB2. Successful generation of the antibody was confirmed by SDS-PAGE and western blotting using anti-mouse heavy and light chain antibodies and recombinant Sp17 protein (FIGS. 2 & 3). The chAB2 antibody was reactive to mouse surface Sp17 protein expressed on the mouse ovarian cancer cell line ID8 (FIG. 4).

B1: mouse-human chimeric anti-Sp17 IgG2a/kappa monoclonal antibody chAB2 (antibody, V domains shown)
VH: QVQLQQSGAEVKKPGSSVKVSCKASGGTFSSYAISWVRQAPGQGLEWMGRIIPILGIANYAQKFQGRVTITADKSTSTAYMELSSLRSEDTAVYYCARPSEEVVAAYGAFDIWGQGTTVTVSS
VL: EIVLTQSPLSLPVRPGEPASISCRASQSLLRSDGFNYLDWYLQKPGQSPQLLVYLGSNRASGVPDRFSGSGSGTDFTLKISRVEAEDVGVYYCMQAVQTPYIFGQGTKLEIK
notes: also called chimeric antibody; anti-Sp17 antibody chAB2
- Kd: 2.07 nM
- koff: 0.00013 s⁻¹
- kon: 62600 M⁻¹ s⁻¹
